Values of other authors, collected in patent publication US20120245089A1, “USE OF THE SPARC MICROENVIRONMENT SIGNATURE IN THE TREATMENT OF CANCER” (ABRAXIS BIOSCIENCE, LLC, priority 2009, published 2012).

Experiments:
[1] = system: HOSE (human ovarian surface epithelial) and ovarian cancer cells; details: exogenous SPARC; concentration-dependent
neuroblastoma tumor = details: purified SPARC; in vivo xenograft model

B1: SPARC: matrix-associated protein; exogenous or purified SPARC in cited studies (protein, UniProt P09486 18-303, looked up)
SPARC: APQQEALPDETEVVEETVAEVTEVSVGANPVQVEVGEFDDGAEETEEEVVAENPCQNHHCKHGKVCELDENNTPMCVCQDPTSCPAPIGEFEKVCSNDNKTFDSSCHFFATKCTLEGTKKGHKLHLDYIGPCKYIPPCLDSELTEFPLRMRDWLKNVLVTLYERDEDNNLLTEKQKLRVKKIHENEKRLEAGDHPVELLARDFEKNYNMYIFPVHWQFGQLDQHPIDGYLSHTELAPLRAPLIPMEHCTTRFFETCDLDNDKYIALDEWAGCFGIKQKDIDKDLVI
- Apoptosis in ovarian cancer cells (ovarian cancer cells): induces apoptosis
- Proliferation of HOSE and ovarian cancer cells [1]: reduce the proliferation
- Angiogenesis and neuroblastoma tumor growth (neuroblastoma tumor): inhibit angio-gnesis and impair neuroblastoma tumor growth
